Here are results for 2 molecules from paper doi:10.1101/2020.04.07.029900, “Pat1 increases the range of decay factors and RNA bound by the Lsm1-7 complex” (bioRxiv, 2020).

Data set [1] has as its target T1, Lsm1-7 complex (S. pombe, UniProt P87173 1-140; O94408 1-96; Q9Y7M4 1-93; O14352 1-121; O42978 1-80; Q9UUI1 1-75; …).
T1 construct: Lsm1, S. pombe; from a polycistron of all seven Lsm proteins; Lsm2, S. pombe; Lsm3, S. pombe; Lsm4, S. pombe; Lsm5, S. pombe; Lsm6, S. pombe; Lsm7, S. pombe; Expected mass of the monomeric complex 81 kDa; In the droplet experiment 0.1 uM of it carried Alexa Fluor 555 maleimide; In the co-purification with PatMC the His6 tag on Lsm1 was present on Ni-NTA and cut by TEV before gel filtration; also …
Kind of data set: SEC; PatMC co-expressed with His6-Lsm1-7 in E. coli, co-purified on Ni-NTA and heparin, TEV, then preparative Superdex 200 16/60 in 400 mM NaCl, 20 mM HEPES 7.0, 1 mM DTT; SDS-PAGE of the complex. The conditions noted are these: both partners purified. (Size exclusion chromatography separates by hydrodynamic size, large species first.)

Data set [2] deals with the molecule itself. Kind of data set: AUC; sedimentation velocity, 9.3 uM PatMC/Lsm1-7 without RNA, 250 mM NaCl, 20 mM HEPES pH 7.0, 1 mM DTT, 30,000 rpm, 10-12 hours.
Data set [3] deals with the molecule itself. Nature of the data set: AUC; sedimentation velocity, 9.3 uM PatMC/Lsm1-7 with stoichiometric A15 RNA, 250 mM NaCl, 20 mM HEPES pH 7.0, 1 mM DTT, 30,000 rpm, 10-12 hours.

T1 sequence (Q9Y7M4 whole entry, chain 3 of 2): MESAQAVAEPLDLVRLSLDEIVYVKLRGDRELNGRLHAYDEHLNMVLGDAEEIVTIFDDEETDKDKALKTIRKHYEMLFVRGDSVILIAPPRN
T1 sequence (O42978 whole entry, chain 5 of 2): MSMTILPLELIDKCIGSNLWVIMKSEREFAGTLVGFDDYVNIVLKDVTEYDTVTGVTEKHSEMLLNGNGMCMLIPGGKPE

B1: PatMC (middle and C-terminal domains of Pat1, residues 296-754) (domain or fragment, S. pombe, UniProt O42958 296-754, looked up)
chain: LDEKRQKLERDHMLMAQCAGLMTRSDKSFIARIQISQLMSEDPESDDFYYRVYSIIRGRKPSEEEASHFIQTYLGPSNNRRRGRRSENPMQKLQQQLQRLVSSAKERPKATQLSLEGALGKIAVNTVRTPRQLLNVKRPTEPASSNSSLNNFSGFSTKKDVLHAIEKVYDLLLDFEQALRKASTLETTDQEQIDTWKTTLSEKLESIWKALYINESLEASSKTRPPFISIISHPKGMRLLPRLFPHLSKEQQISILKVVVYNFDSLDIVLRGTFDVNGELPLDVVSEMSSFTQFIIPPLLTIVNELDLETINNLFSQLLNRTNAVYLIQTKIGLSFLTLFISRAEILKQSGTVNQNEKEEWENTFNVMFNRVKGHFSTVFPPPNARAYADESYPWEFLAACATAASSEQHFTLVSETRDRVLDNIITSKRAPSEIAVVRISNVNLFLNAMGLDARQLSA
notes: Pat1, S. pombe, middle and C-terminal domains (PatMC), residues 296-754; codon optimized gene in site two of pET-Duet; No tag is told for PatMC in the co-expression construct; source: E. coli BL21(DE3)*, co-expressed with Lsm1-7 from pET-Duet, co-purified (Ni-NTA, heparin, Superdex 200)
For B1, the binding result in data set [1] is “binds”.

B2: PatMC/Lsm1-7 complex (complex)
chain 1: B1 chain
chain 2: MNQATQIIPFTTSGSLVDYVDRKVIVVLRDGKKLIGILRSFDQFANLMLQYTIERIYVDDMYGDIDRGVYIVRGENVVLLGELDLDKEYDAVKQLRRMPAEELYPLAKLHEEEKKKNIREKGKYLHSVGFSVDGGHDDLY
chain 3: MLFYSFFKTLIDTEVTVELKNDMSIRGILKSVDQFLNVKLENISVVDASKYPHMAAVKDLFIRGSVVRYVHMSSAYVDTILLADACRRDLANNKRQ
chain 4: not shown
chain 5: MLPLTLLNATQGRPILVELKNGETFNGHLENCDNYMNLTLREVIRTMPDGDKFFRLPECYIRGNNIKYLRIQDEVLSQVAKQQAQQRENRGSRFRGRGQRGRGNYGHTAPNRRGRGRGGHM
chain 6: not shown
chain 7: MDSSPNEFLNKVIGKKVLIRLSSGVDYKGILSCLDGYMNLALERTEEYVNGKKTNVYGDAFIRGNNVLYVSALDD
chain 8: MSSLQKRPGPGNSSQPTERPRKESILDLSRYQDQRIQATFTGGRQITGILKGFDQLMNLVLDDVEEQLRNPEDGKLTGAIRKLGLVVVRGTTLVLIAPMDGSEEIPNPFVQAE
notes: Pat1, S. pombe, middle and C-terminal domains (PatMC), residues 296-754; codon optimized gene in site two of pET-Duet; Lsm1, S. pombe; from a polycistron of all seven Lsm proteins; Lsm2, S. pombe; Lsm3, S. pombe; Lsm4, S. pombe; Lsm5, S. pombe; Lsm6, S. pombe; Lsm7, S. pombe; Heterooctamer, expected mass of the monomeric complex 133 kDa; TEV was added before gel filtration to remove the His6 tag …
A word on the stoichiometry N: it is the number of molecules, sites or subunits per partner or assembly. Take B2: the “stoichiometry N” value in data set [2] was 2; in data set [3] it was 4.
